From patent US20090191187A1 (published 2009)

How the values were obtained:
[1] = target: T1, human interleukin-1 receptor on cells (MRC-5 human embryonic lung fibroblasts; human blood cells) (human, UniProt P14778 18-569); assay: cell-based or functional assay
T1 sequence (looked up): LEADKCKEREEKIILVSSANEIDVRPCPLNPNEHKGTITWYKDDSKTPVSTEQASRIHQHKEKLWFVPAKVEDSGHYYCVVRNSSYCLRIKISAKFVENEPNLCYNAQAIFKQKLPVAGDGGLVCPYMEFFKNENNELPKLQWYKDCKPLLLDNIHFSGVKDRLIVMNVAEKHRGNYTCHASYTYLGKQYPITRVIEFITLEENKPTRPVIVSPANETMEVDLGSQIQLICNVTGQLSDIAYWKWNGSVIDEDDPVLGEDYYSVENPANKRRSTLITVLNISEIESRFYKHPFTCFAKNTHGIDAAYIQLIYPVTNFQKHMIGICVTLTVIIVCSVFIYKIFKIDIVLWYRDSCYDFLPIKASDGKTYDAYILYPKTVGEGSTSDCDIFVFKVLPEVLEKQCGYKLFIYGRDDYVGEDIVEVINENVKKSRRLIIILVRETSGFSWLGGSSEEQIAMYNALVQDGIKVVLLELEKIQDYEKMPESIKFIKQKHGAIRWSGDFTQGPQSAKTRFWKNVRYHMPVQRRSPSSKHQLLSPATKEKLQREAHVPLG

[2] = target: T2, recombinant soluble human type 1 IL-1 receptor (extracellular domain, glycosylated) (human, UniProt P14778 21-333, N-glycosylated (from SF9 insect cells); biotinylated in the ELISA of Examples 2 and 4c); assay: ELISA on biotinylated human IL-1R on streptavidin plates
T2 construct: also called hIL-1R; rshIL-1R
T2 sequence: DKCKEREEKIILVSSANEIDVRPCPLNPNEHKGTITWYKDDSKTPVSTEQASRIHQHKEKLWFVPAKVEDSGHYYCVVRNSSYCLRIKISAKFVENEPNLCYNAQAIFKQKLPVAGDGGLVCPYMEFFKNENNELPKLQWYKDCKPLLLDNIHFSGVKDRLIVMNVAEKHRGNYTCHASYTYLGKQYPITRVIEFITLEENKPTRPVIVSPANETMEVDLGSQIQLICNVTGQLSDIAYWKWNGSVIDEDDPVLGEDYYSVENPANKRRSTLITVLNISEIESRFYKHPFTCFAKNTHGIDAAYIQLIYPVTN
Method: The relative immunactivity of the antibodies as compared to 2D8 antibody was determined by ELISA. A soluble biotinylated human IL-1R was coated at room temperature for one hour to 96-well-plates (precoated with streptavidin). After blocking with BSA the antibody was diluted and added to the wells and incubated at room temperature for two hours. The plates were washed three times and incubated with horse-radish-peroxidase (POD)-conjugated rabbit-anti-rat-IgG at room temperature for one hour. After further washing the amount of bound antibody was determined by addition of TM-Blue® ([…]) and measurement of the absorbance at 370 nm.

[3] = target: T2, recombinant soluble human type 1 IL-1 …; assay: SPR competition: IL-1R (10 nM) preincubated with DEI5/8, injected over immobilized 2D8 (competitor); first assay: immobilized 2D8
Method: The protein-protein interaction of anti-IL-1R antibodies with IL-1R is analyzed by surface plasmon resonance using a Biacore 3000 System. Association rates are determined by an injection of two minutes duration; dissociation rates are measured by a washing step of three minutes duration. Negative control data are subtracted from original curves for correction of system intrinsic baseline drift and for noise signal reduction. Two assay formats with the antibody and IL-1R immobilized to the chip surface are used for this study.
a) Anti-IL-1R antibody 2D8 is covalently immobilized on the chip surface (CM5) by amine coupling. IL-1R is injected in a concentration of 10 nM under mass transfer conditions in order to determine the maximum signal which serves as a reference in the inhibition studies. Inhibition of IL-1R (10 nM) binding is measured by preincubation (in HBS—P buffer for at least 20 min at room temperature) of IL-1R with increasing concentrations (0.78-100 nM) of IL-1R antagonist, IL-1beta or DEI5/8. Subsequently, the samples are injected into the flow cells and interaction with immobilized 2D8 antibody is determined.

B1: DEI5/8 (antibody, human IgG4, kappa, V domains shown)
VH: QLQLQESGPGLVKPSQTLSLTCTVSGLSLTSNSITWIRQPPGKGPEWMGMIWSNGDTDYSTSLKSRLTISKDTSKSQVVLTMTNMDPVDTATYYCARYNYYFDYWGQGTLVTVSS
VL: DIVLTQSPATLSLSPGERATLSCKASQNVDNRGVSYVHWYQQKPGQAPKLLIYKGSNLAFGVPSRFSGSGSGTDFTLTISSLQPEDFATYFCQQSKGHPDTFGAGTKLELKR
notes: also called combination of HURDIVHv5 and HURDIVKv8
For B1, the “Bioassay (IC50 in relation to 2D8), 1st experiment” value [1] was 1.7 relative to 2D8, the “Bioassay (IC50 in relation to 2D8), 2nd experiment” value [1] was 2.2 relative to 2D8 and the “Bioassay (IC50 in relation to 2D8), Mean” value [1] was 2 relative to 2D8. For the same binder, the “ELISA (absorbance at 370 nm in relation to 2D8), 1st experiment” value [2] was 1.4 relative to 2D8, the “ELISA (absorbance at 370 nm in relation to 2D8), 2nd experiment” value [2] was 1.9 relative to 2D8 and the “ELISA (absorbance at 370 nm in relation to 2D8), mean” value [2] was 1.7 relative to 2D8. The IC50 [3] was 2 nM.
